Measurements published in PMC6684648 (2019).

B1: human glu-plasminogen (88 KD) (natural protein)
chain: EPLDDYVNTQGASLFSVTKKQLGAGSIEECAAKCEEDEEFTCRAFQYHSKEQQCVIMAENRKSSIIIRMRDVVLFEKKVYLSECKTGNGKNYRGTMSKTKNGITCQKWSSTSPHRPRFSPATHPSEGLEENYCRNPDNDPQGPWCYTTDPEKRYDYCDILECEEECMHCSGENYDGKISKTMSGLECQAWDSQSPHAHGYIPSKFPNKNLKKNYCRNPDRELRPWCFTTDPNKRWELCDIPRCTTPPPSSGPTYQCLKGTGENYRGNVAVTVSGHTCQHWSAQTPHTHNRTPENFPCKNLDENYCRNPDGKRAPWCHTTNSQVRWEYCKIPSCDSSPVSTEQLAPTAPPELTPVVQDCYHGDGQSYRGTSSTTTTGKKCQSWSSMTPHRHQKTPENYPNAGLTMNYCRNPDADKGPWCFTTDPSVRWEYCNLKKCSGTEASVVAPPPVVLLPDVETPSEEDCMFGNGKGYRGKRATTVTGTPCQDWAAQEPHRHSIFTPETNPRAGLEKNYCRNPDGDVGGPWCYTTNPRKLYDYCDVPQCAAPSFDCGKPQVEPKKCPGRVVGGCVAHPHSWPWQVSLRTRFGMHFCGGTLISPEWVLTAAHCLEKSPRPSSYKVILGAHQEVNLEPHVQEIEVSRLFLEPTRKDIALLKLSSPAVITDKVIPACLPSPNYVVADRTECFITGWGETQGTFGAGLLKEAQLPVIENKVCNRYEFLNGRVQSTELCAGHLAGGTDSCQGDSGGPLVCFEKDKYILQGVTSWGLGCARPNKPGVYVRVSRFVTWIEGVMRNN
B2: bovine β-glucuronidase (290 KD) (enzyme)
chain: LQGGMLYPRESRSRERKELDGLWSFRADFSDNRRQGFEQQWYRAPLRESGPTLDMPVPSSFNDVGQDGQLRSFVGWVWYEREITLPQRWTEDLGTRVVLRIGSAHYYAIVWVNGVHVLEHEGGHLPFEADISKLVQSGPLSSCRITIAINNTLSPHTLPPGTILYKTDPSMYPKGYFVQNTKFDFFNYAGLHRSVLLYTTPTTYIDDITVTTDMDQDIGLVNYQIIVQGSDHFQVDVSLLDEEGKVMAKGAGAEGQLQVPSAHLWWPYLMHEHPAYLYSLEVKLTAQTAVGPVSDFYTLPVGIRTVAVTKSQFLINGKPFYFRGVNKHEDADIRGKGFDWPLLVKDFNLLRWLGANAFRTSHYPYSEEVLQLCDRYGIVVIDESPGVGIVLVESFSNVSLQHHLEVMEEMIRRDKNHPAVVMWSLANEPASFLKPAGYYFKTLIAHTKALDPSRPVTFVTNTNYEADLGAPYVDIICVNSYYSWYHDYGHMEVIQLQLATQFENWYKAYQKPMIQSEYGADAIEGFHEDPPLMFSEEYQKGLLQQYHVVLDQKRKEYVVGELIWNFADFMTNQSPVRMIGNRKGIFTRQRQPKSAAFLLRERYWKLANETRYQRSAVTSQCVGSGLFTV
modifications: mannose 6-phosphate (M6P-beta-glucuronidase)

Molecular target: human IGF2R extra-cellular domains 1-15 fused at the C-terminal to rat CD4 (domains 3 + 4), biotin acceptor … (human, UniProt P11717 41-2304, biotin on the BirA acceptor tag)
Assay: SPR

Binder | Kd
B1 | 43.5 nM
B2 | 52.3 nM
